Results from the nanobody polyreactivity screen of Harvey et al. (2022).

Test: yeast display, Sf9 membrane polyspecificity reagent, FACS + sequencing; frameworks hold sequencing errors
Procedure, shortened: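 Polyreactivity labels are assigned by the sorting gate from which each nanobody was recovered. The gates were low and high (top ~1%), set on anti-HA fluorescence for expression and streptavidin fluorescence for reagent binding. Before sorting, galactose-induced (36–48 hours) yeast display cells were stained for 1 hour at 4 °C with 10% biotinylated, detergent-solubilized Sf9 membrane reagent.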

Sequence	polyreactivity (PSR sort gate)
QVQLVESGGGLVQAGGSLRLSCAASGIIFWAYAMGWYRQAPGKERELVAAISWSGGRTYYADSVKGRFTISRDNAKNTVYLQMNSLKPEDTAVYYCAAYRFLLYDYWGQGTQVTVSS	high polyreactivity
QVQLVESGGGLVQAGGSLRLSCAASGIIFWDYAMGWYSQAPGKERELVAAISSSGSTTYYADSVKGRFTISRDNAKNTVYLQMNSLKPEDTAVYYCAAESLYEDDKGDYWGQGTQVTVSS	high polyreactivity
QVQLVESGGGLVQAGGSLRLSCAASGIIFWRYAMGWYRQAPGKERELDAGITSRGGSTYYADSVKGRFTISRDNAKNTVYLQMNSLKPEDTAVYYCNAPRGSRRSYRRTEYYYWGQGTQVTVSS	high polyreactivity
QVQLVESGGGLVQAGGSLRLSCAASGIIFWSSVMGWYRQAPGKERELVAAITFSGGSTYYADSVKGRFTISRDNAKNPVYLQMNSLKPEDTAVYYCAARYKLVRRYDYWGQGTQVTVSS	low polyreactivity
QVQLVESGGGLVQAGGSLRLSCAASGIIFWSYTMGWYSQAPGKERELVAVITSDGSTNYADSVKGRITISRDNAKNSVYLQMKSLKPEDTAVYDCAADPWLGTGRYDYWGQGTQVTVSS	low polyreactivity
QVQLVESGGGLVQAGGSLRLSCAASGIIFYDYAMGWYRQAPGKERELVAAISRSGSSTYYADSVKGRFTISRDNAKNTVYLQMNSLKPEDTAVYYCASRFGDMGYWGQGTQVTVSS	high polyreactivity
QVQLVESGGGLVQAGGSLRLSCAASGIIFYDYAMGWYRQAPGKERELVAAISTDAGSTYYADSVKGRFTISRDNAKNTVYLQMNCLKPEDTAVYYCNADELSYYVSWDYEYDYWGQGTQVTVSS	high polyreactivity
QVQLVESGGGLVQAGGSLRLSCAASGIIFYDYAMGWYRQAPGKERELVAAITSSGGSTYYADSVKGRFTISRDNAKNTVYLQMNSLKPEDTAVYYCAAATRGSGRRYDYWGQGTQVTVSS	high polyreactivity
QVQLVESGGGLVQAGGSLRLSCAASGIIFYGYAMGRYRQAPGKERELVAAITSSGRTYYADSVKGRFTISRDNAKNTVYLQMNSLKPEDTAVYFCNVLLQRVYGTAPSFDYWGQGTQVTVSS	high polyreactivity
QVQLVESGGGLVQAGGSLRLSCAASGIIFYGYAMGWYRQAPGKERELVAAISRSGGSTYYADSVKGRFTISRDNAKNTVYLQMNSLKPEDTAVYYCAAVRIRPLRYYYWGQGTQVTVSS	high polyreactivity
QVQLVESGGGLVQAGGSLRLSCAASGIIFYGYAMGWYRQAPGKERELVAAITYSGGSTYYADSVKGRFTISRDNAKNTVYLQMNSLKPEDTEVYYCAAYDAYSPYQALYDYWGQGTQVTVSS	low polyreactivity
QVQLVESGGGLVQAGGSLRLSCAASGIIFYLNAMGWYRQAPGKERELVAAISSSGGRTNYADSVKGRFTISRDNAKNSVYLQMNSLKPEDTAVYFCAAVITFYRYPPGETYYYWGQGTQVTVSS	high polyreactivity
QVQLVESGGGLVQAGGSLRLSCAASGIIFYLYAMGWYRQAPGKERELVAPITTGGRTNYADSVKGRFTISRDNAKNTVYLQMNSLKPEDTAVYYCAATHRGQGGYYWGQGTQVTVSS	low polyreactivity
QVQLVESGGGLVQAGGSLRLSCAASGIIFYRNTMGWYRQAPGKERELVASISRGGSTNYADSVKGRFTISRDNAKNTVYLQMNSLKPEDTAVYYCAAYTYIPLSYYRGYTMDYWGQGTQVTVSS	low polyreactivity
QVQLVESGGGLVQAGGSLRLSCAASGIIFYSSAMGWYRTAPGKERELVAAISWGGRTYYADSVKGRFTISRDNAKNTVYLQMNSLKPEDTAVYYCLNGRYWRRYDYWGQGTQVTVSS	high polyreactivity
QVQLVESGGGLVQAGGSLRLSCAASGIIFYSYAMGWYRQAPGKERELVATISFSGDNTYYADSVKGRFTISRDNAKNTVYLQMNSLKPEDTAVYYCAAASTYGGYYYSVSFEYWGQGTQVTVSS	low polyreactivity

Sequence	polyreactivity (PSR sort gate)
QVQLVESGGGLVQAGGSLRLSCAASGIIFYYSAMGCYRQAPGKERELVAAISWSGGTTIYADSVKGRFTISLDNAKSTVYLQMNSLKPKDTAVYYCAAAFSPGWWSRHTYDYDYWGQGTQLTVSS	high polyreactivity
QVQLVESGGGLVQAGGSLRLSCAASGIIFYYYAMGGYRQAPGKEREFVAGIRWSSGSTYYADSVKGRFTISRDNAKNTVYLQMNSLKPEDTAVYYCAADSSGEYPGGYWGQGTQVTVSS	low polyreactivity
QVQLVESGGGLVQAGGSLRLSCAASGIIFYYYAMGWYRQAPGKERELVAAISTSGGRTYYADSVKGRFTISRDNAKNTVYLQMNSLKPEDTAVYYCNTKVISRTSERRGNGFTRYDYWGQGTQVTVSS	low polyreactivity
QVQLVESGGGLVQAGGSLRLSCAASGIIFYYYAMGWYRQAPGKERELVAGISYSGGSTYADSVKGRFTISRDNAKNTVYLQMNSLKPEDTAVYYCASDYDYGGHWYDYWGQGTQVTVSS	low polyreactivity
QVQLVESGGGLVQAGGSLRLSCAASGIIFYYYGMGWYSQAPGKERELVAAISTGGSTNYADSVKGRFTISRDNAKNTVYLQMNRLKPEDTAVYYCAVTYWWYYGYDYWGQGTQVTVSS	low polyreactivity
QVQLVESGGGLVQAGGSLRLSCAASGIIIDYNAMGWYRQAPGKERELVAAISSRGGSTYYADSVKGRFTISRDNAKNPVYFQMNSLKPEDTAVYYCAGRPDHQRYDYWGQGSQVTVSS	low polyreactivity
QVQLVESGGGLVQAGGSLRLSCAASGIIIDYYTMGWYRQAPGQERELVAAINKSGGSTYADSVKGRFTISRDNAKNTVYLQMNSLKPEDTAVYYCAAEVDYSYWPEYARKYYYWGQGTQVTVSS	low polyreactivity
QVQLVESGGGLVQAGGSLRLSCAASGIIIGGYAMGWYRQAPGKERELVADITWSGGSTTYADSVKGRFTISRDNAKNTVYLQMNSLKPEDTAVYYCAAEDYYIYREPYDYWGQGTQVTVSS	low polyreactivity
QVQLVESGGGLVQAGGSLRLSCAASGIIIRKYAMGWYRQAPGKERELVAAITTRGSRTYYADSVKGRFTISRDNAKNTVYLQMNSLKPEDTAVYYCAGDRYTVRMDYWGQGTQVTVSS	high polyreactivity
QVQLVESGGGLVQAGGSLRLSCAASGIIIRYYAMGWYRQAPGKERELVADITTGGTTYYADSVKGRFTISRDNAKNTVYLQMNCLKPEDTAVYYCAAYYFPTYSKTYIYPFDYWGQGTQVTVSS	low polyreactivity
QVQLVESGGGLVQAGGSLRLSCAASGIIIRYYAMGWYRQAPGKERELVADITTGGTTYYADSVKGRFTISRDNAKNTVYLQMNSLKPEDTAVYYCAAYYFPTYSKTYIYPFDYWGQGTQVTVSS	low polyreactivity
QVQLVESGGGLVQAGGSLRLSCAASGIIISRYAMGWYRQAPGKERELVADISIGDSTNYADSVKGRFTISRDNAKNTVYLQMNSLKPEDTAVYYCAAGDYFYSYYYWGQGTQVTVSS	low polyreactivity
QVQLVESGGGLVQAGGSLRLSCAASGIIIVGNSMGWYRQAPGKQRELVASINSGGSTYYADSVKGRFTISRDNAKNTVYLQMNSLKPEDTAVYDCAVEEDRYYYDDYDYCGQGTQVTVSS	low polyreactivity
QVQLVESGGGLVQAGGSLRLSCAASGIILDHYAMGWYRQAPGKERELVAAISSGTRTNYADSVKGRFTISRDNAKNTVYLQMNSLKPEDTAVYYCAATIYRRYRSKSSITSYWGQGSQVTVSS	high polyreactivity
QVQLVESGGGLVQAGGSLRLSCAASGIILKYYAMGWNRQAPVKERELVAAITSSGDSTYYADSVKGRFTISRDNAKNTVYLQMNSLKPDDTAVYYCAALRFRGGQSTGRDRMDYWGQGTQVTVSS	high polyreactivity
